Target: T1, phosphorylated human tau protein (human, UniProt P10636-8 1-441, limits assumed, S422 phosphorylation)
T1 construct: also called pTau
Experiment: SPR (BIAcore); value set to 0 where kd not determinable

T1 sequence (P10636 other isoform, or with tags, fused parts or gaps limits assumed): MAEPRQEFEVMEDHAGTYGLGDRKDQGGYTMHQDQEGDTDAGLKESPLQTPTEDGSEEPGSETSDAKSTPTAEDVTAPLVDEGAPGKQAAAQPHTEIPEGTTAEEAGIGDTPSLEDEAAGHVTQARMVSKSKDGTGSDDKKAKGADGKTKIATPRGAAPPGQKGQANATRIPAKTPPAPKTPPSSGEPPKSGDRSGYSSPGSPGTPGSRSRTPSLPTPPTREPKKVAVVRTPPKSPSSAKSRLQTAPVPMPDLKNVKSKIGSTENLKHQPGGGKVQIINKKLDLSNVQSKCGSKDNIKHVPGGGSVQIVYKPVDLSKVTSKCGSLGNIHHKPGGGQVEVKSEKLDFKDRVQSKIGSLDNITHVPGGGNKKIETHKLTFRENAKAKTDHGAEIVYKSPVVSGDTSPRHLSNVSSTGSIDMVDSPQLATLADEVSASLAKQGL

half-life (t1/2): 0 min
B1: Rb86 variant: HC 001_IGHV3_23_04 / LC 010--IMGT_hVK_1_17 (antibody, V domains shown)
VH: QQLVESGGGLVQPGGSLRLSCAASGFSLSSNAINWVRQAPGKGLEWVGYIAVSGNTYYASWAKGRFTISRDNSKNTLYLQMNSLRAEDTAVYYCGKSNIWGQGTLVTVSS
VL: DIQMTQSPSSLSASVGDRVTITCRASQGVRTNKLGWYQQKPGKAPKRLIYSASTLQSGVPSRFSGSGSGTEFTLTISSLQPEDFATYYCLGYFDCSIADCVAFGGGTKVEIK

Source: patent US20170204182A1 (published 2017)
